According to US20210338809A1, “Immune Tolerance-Inducing Agent and Therapeutic or Prophylactic Agent for Allergic Disorder” (Tokushima University, priority 2018, published 2021):

Tests used:
[1] = system: OVA transdermally sensitized model mice; test: Anaphylaxis-eliciting test using aspirin pre-administration and oral OVA challenge, rectal temperature monitoring; assay type: in vivo, mouse; settings: for change in rectal temperature: from 30 minutes after challenge
Protocol: Balb/c mice (6-7 weeks old, female) were subjected to hair removal on the back of the head with hair clippers, then, 100 μL of aqueous SDS solution (4%) was uniformly applied to damage their skin barrier function, and after 10 minutes, 100 μL of an aqueous solution of ovomucoid (OVM) (manufactured by NACALAI TESQUE, INC.) (10 mg/mL), 100 μL of an aqueous solution of ovalbumin (OVA) (manufactured by Sigma-Aldrich) (10 mg/mL), or 100 μL of an aqueous solution of casein (manufactured by Sigma-Aldrich) (10 mg/mL) was uniformly applied. Such allergen applications were carried out a total of 10 times (for 2 weeks with a frequency of 5 times/week) to generate a transdermally sensitized food allergic mouse model against OVM, OVA, or casein. The mice 10-14 days after transdermal sensitization were subjected to the following experiments.
In accordance with the schedule shown in FIG. 1, the present inventors performed two types of loadings of “ASA pre-administration” and “allergen oral administration” in combination on the allergen transdermally sensitized mouse model of the present invention to examine whether anaphylaxis could be reliably elicited. Experimental procedures and results are shown in the following (1) to (4).
The OVA transdermally sensitized model mice (body weight of about 20 g) of the present invention were fasted for 2 hours or more and then oral administration of ASA (manufactured by Sigma-Aldrich) dissolved in 50% ethanol (1.25 mg/100 μL/mouse) was performed. Also, as a control, a group was provided to which oral pre-administration of 50% ethanol alone without ASA was performed.
Thirty minutes after the pre-administration of ASA or ethanol, an aqueous OVA solution (manufactured by Sigma-Aldrich) was orally challenged (20 mg/100 μL/mouse). In addition, as a control, a group was provided to which only water (without OVA) was orally administered.
In this experiment, rectal temperatures were measured at 10-minute intervals starting from 10 minutes before OVA administration and for 90 to 120 minutes after administration. Then, the temperature change after OVA administration was monitored using the temperature 10 minutes before OVA administration as a reference value. It was determined that the mouse developed anaphylaxis when the rectal temperature decreased by 1° C. or more relative to the reference value.

[2] = system: casein transdermally sensitized mice; test: Anaphylaxis-eliciting test by intraperitoneal challenge with casein after prophylactic immunization and casein transdermal sensitization; assay type: in vivo, mouse; settings: subcutaneous injection 1 μg casein twice before sensitization
[3] = system: transdermally sensitized OVM allergic mouse model; test: Anaphylaxis-eliciting test with trace amount of OVM alone; assay type: in vivo
Protocol: Specifically, the transdermally sensitized OVM allergic mouse model (body weight of about 20 g, n=10) was subjected to fasting and ASA administration before the challenge test in accordance with the procedures of Example 2. Then an oral OVM challenge test was performed. The oral OVM challenge test was performed by orally challenging with 0.01 μg of OVM once and examining change in rectal temperature for 60 minutes.

## CC(=O)Oc1ccccc1C(=O)O [ASA/50% ethanol, acetylsalicylic acid, reference compound]
[1]
  change in rectal temperature: tendency of increase

## casein
[2]
  rectal temperature decrease in the other four cases: worsening tendency
[2]; n=5
  improvement of rectal temperature decrease after intraperitoneal challenge test: only one case

B1: ovomucoid (protein, UniProt P01005 25-210, looked up)
Ovomucoid: AEVDCSRFPNATDKEGKDVLVCNKDLRPICGTDGVTYTNDCLLCAYSIEFGTNISKEHDGECKETVPMNCSSYANTTSEDGKVMVLCNRAFNPVCGTDGVTYDNECLLCAHKVEQGASVDKRHDGGCRKELAAVSVDCSEYPKPDCTAEDRPLCGSDNKTYGNKCNFCNAVVESNGTLTLSHFGKC
[3]; 0.01 μg OVM alone orally
  induction of anaphylaxis: does not induce anaphylaxis
[3]; 0.01 μg OVM alone orally once, 60 minutes, n=10, ASA pre-administered
  rectal temperature after administration: did not decrease

B2: ovalbumin (protein, UniProt P01012 2-386, looked up)
Ovalbumin: GSIGAASMEFCFDVFKELKVHHANENIFYCPIAIMSALAMVYLGAKDSTRTQINKVVRFDKLPGFGDSIEAQCGTSVNVHSSLRDILNQITKPNDVYSFSLASRLYAEERYPILPEYLQCVKELYRGGLEPINFQTAADQARELINSWVESQTNGIIRNVLQPSSVDSQTAMVLVNAIVFKGLWEKAFKDEDTQAMPFRVTEQESKPVQMMYQIGLFRVASMASEKMKILELPFASGTMSMLVLLPDEVSGLEQLESIINFEKLTEWTSSNVMEERKIKVYLPRMKMEEKYNLTSVLMAMGITDVFSSSANLSGISSAESLKISQAVHAAHAEINEAGREVVGSAEAGVDAASVSEEFRADHPFLFCIKHIATNAVLFFGRCVSP
notes: ovalbumin, egg allergen
[1]; 10 minutes after oral OVA challenge
  decrease in rectal temperature: around 1.1 °C
[1]; oral OVA challenge 20 mg/mouse
  elicitation of anaphylaxis: extremely mild

B3: 50% ethanol+OVA: 50% ethanol alone pre-administered, followed by oral OVA challenge (protein, UniProt P01012 2-386, looked up)
Ovalbumin: B2 Ovalbumin
modifications: after 50% ethanol pretreatment
[1]
  change in rectal temperature: increase
